Test [1] addresses T1, IHF from Haemophilus influenzae (Haemophilus influenzae, UniProt P43723 1-96).
T1 construct: also called IHF (Hi); H. influenzae; not shown: poly-histidine tag
T1 sequence: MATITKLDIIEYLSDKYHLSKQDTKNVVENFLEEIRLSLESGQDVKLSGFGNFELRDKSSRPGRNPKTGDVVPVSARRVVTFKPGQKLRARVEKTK
Put plainly: ELISA.

In test [2] the target is T2, IHF from Klebsiella pneumoniae (Klebsiella pneumoniae, UniProt A6TAI1 1-99).
T2 construct: also called IHF (Kp); K. pneumoniae
T2 sequence: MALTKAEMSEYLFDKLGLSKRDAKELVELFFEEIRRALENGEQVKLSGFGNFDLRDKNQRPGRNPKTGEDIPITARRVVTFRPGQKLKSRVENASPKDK
Put plainly: ELISA. (In an ELISA, binding on a coated surface is turned into a signal by an enzyme label.)

Test [3] deals with T3, IHF from Pseudomonas aeruginosa (Pseudomonas aeruginosa, UniProt Q51472 2-100).
T3 construct: also called IHF (Pa); P. aeruginosa; not shown: poly-histidine tag
T3 sequence: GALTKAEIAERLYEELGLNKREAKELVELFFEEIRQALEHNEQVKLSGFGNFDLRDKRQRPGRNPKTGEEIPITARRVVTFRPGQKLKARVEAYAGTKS
Put plainly: ELISA.

Test [4] deals with T4, IHF from Staphylococcus aureus (Staphylococcus aureus, UniProt Q5HFV0 1-90).
T4 construct: also called IHF (Sa); HU; not shown: poly-histidine tag
T4 sequence: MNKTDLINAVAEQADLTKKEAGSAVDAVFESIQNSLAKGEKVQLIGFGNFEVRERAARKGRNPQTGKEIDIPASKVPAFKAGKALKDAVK
Put plainly: ELISA.

Test [5] addresses peptide 19 of the set of overlapping 15-mer peptides from the IHF of Staphylococcus aureus (Staphylococcus aureus). Put plainly: peptide binding on streptavidin plates.
For test [6], the target named is peptide 20 of the set of overlapping 15-mer peptides from the IHF of Staphylococcus aureus (Staphylococcus aureus). Put plainly: peptide binding on streptavidin plates.
The target of test [7] is peptide 26 of the set of overlapping 15-mer peptides from the IHF of Staphylococcus aureus (Staphylococcus aureus). Put plainly: peptide binding on streptavidin plates.
For test [8], the target named is T1, IHF from Haemophilus influenzae. Put plainly: BLI, ForteBio Octet QK, ratio of on and off rates. (BLI is a label-free optical method that tracks binding on a fibre tip over time.)
Test [9] concerns the target T2, IHF from Klebsiella pneumoniae. Put plainly: BLI, ForteBio Octet QK, ratio of on and off rates.
The target of test [10] is T3, IHF from Pseudomonas aeruginosa. Put plainly: BLI, ForteBio Octet QK, ratio of on and off rates.
The target in test [11] is T4, IHF from Staphylococcus aureus. Put plainly: BLI, ForteBio Octet QK, ratio of on and off rates.
Test [12] addresses IHF target of the pH table of Example 7 (homolog not stated). Put plainly: pH dependence of binding, pH 2.5; ELISA per legend of FIGS. 6A-6B.
The target is the same in test [13]. Put plainly: pH dependence of binding, pH 3.5; ELISA per legend of FIGS. 6A-6B.
Test [14] shares this target. Put plainly: pH dependence of binding, pH 4.5; ELISA per legend of FIGS. 6A-6B.
Test [15] shares this target. Put plainly: pH dependence of binding, pH 5.5; ELISA per legend of FIGS. 6A-6B.
Test [16] has the same target. Put plainly: pH dependence of binding, pH 6.5; ELISA per legend of FIGS. 6A-6B.
Test [17] has the same target. Put plainly: pH dependence of binding, pH 7.5; ELISA per legend of FIGS. 6A-6B.
The target in test [18] is T1, IHF from Haemophilus influenzae. Put plainly: ELISA, antigen coated, half-maximal binding concentration printed as Affinity (pM).
In test [19] the target is T2, IHF from Klebsiella pneumoniae. The test is described as above.
Test [20] has as its target T3, IHF from Pseudomonas aeruginosa. The description is as above.
Test [21] has as its target T4, IHF from Staphylococcus aureus. The test is described as above.
In test [22] the target is T5, IHF from Acinetobacter baumannii (Acinetobacter baumannii, UniProt A3M2B0 1-98).
T5 construct: also called Ab
T5 sequence: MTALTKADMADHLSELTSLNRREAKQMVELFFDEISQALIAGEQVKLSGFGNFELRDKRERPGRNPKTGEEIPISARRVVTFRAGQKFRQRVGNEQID
The description is as above.

From patent publication US20150197558A1 (published 2015) come the findings set out here.

B1: TRL1087 (antibody, V domains shown)
VH: QVQLLESGPGLVRPSDTLSLTCTFSADLSTNAYWTWIRQPPGKGLEWIGYMSHSGGRDYNPSFNRRVTISVDTSKNQVFLRLTSVTSADTAVYFCVREVGSYYDYWGQGILVTVSS
VL: DIEMTQSPSSLSASVGDRITITCRASQGISTWLAWYQQKPGKAPKSLIFSTSSLHSGVPSKFSGSGSGTDFTLTITNLQPEDFATYYCQQKWETPYSFGQGTKLDMIR
In the case of B1, the OD in [1] amounted to 0.06 OD; in test [2] it was 0.06 OD; in [3], 0.06 OD; in test [4], 0.14 OD.

B2: TRL1070 (antibody, V domains shown)
VH: QVQLVQSGGTLVQPGGSLRLSCAASGFTFSYYSMSWVRQAPGKGLEWVANIKHDGTERNYVDSVKGRFTISRDNSEKSLYLQMNSLRAEDTAVYYCAKYYYGAGTNYPLKYWGQGTRVTVSS
VL: DILMTQSPSSLSASVGDRVTITCRASQGIRNDLGWYQQKPGKAPKLLIYAASSLQSGVPSRFSGSGSGTDFTLTISSLQPEDFATYYCLQDYNYPLTFGGGTKVEIKR
On to B2, for which the figures for the OD in test [1] and in [4] were 0.11 OD and 0.3 OD, respectively.

B3: TRL1230 (antibody, V domains shown)
VH: QVQLVQSGGGLVKPGGSLRLSCGASGFNLSSYSMNWVRQAPGKGLEWVSSISSRSSYIYYADSVQGRFTISRDNAKNSLYLQMNSLRAEDTAIYYCARVSPSTYYYYGMDVWGQGTTVTVSS
VL: DIVLTQPSSVSVSPGQTARITCSGDELPKQYAYWYQQKPGQAPVLVIYKDNERPSGIPERFSGSSSGTTVTLTISGVQAEDEADYYCQSADSSGTYVVFGGGTKLTVL
Consider B3, for which the OD in test [1] stood at 0.06 OD; in test [2], 0.07 OD; in test [3] it was 0.3 OD; in test [4], 0.1 OD.

B4: TRL1216 (antibody, V domains shown)
VH: QVQLVESGGGVVQPGGSLRVSCAASAFSFRDYGIHWVRQAPGKGLQWVAVISHDGGKKFYADSVRGRFTISRDNSENTLYLQMNSLRSDDTAVYYCARLVASCSGSTCTTQPAAFDIWGPGTLVTVSS
VL: DIMLTQPPSVSVSPGQTARITCSGDALPKKYTYWYQQKSGQAPVLLIYEDRKRPSEIPERFSAFTSWTTATLTITGAQVRDEADYYCYSTDISGDIGVFGGGTKLTVL
As for B4, the OD in [1] is 0.06 OD; in test [4], 0.5 OD.

B5: TRL1232 (antibody, V domains shown)
VH: QVQLVESGAEVKKPGALVKVSCKASGYTFSGYYMHWVRQAPGQGLEWMGWINPKSGGTKYAQKFQGRVTMTRDTSISTAYMELSRLRSDDTAVYFCARGGPSNLERFLERLQPRYSYDDKYAMDVWGQGTTVTVSS
VL: DIVMTQSPGTLSLSPGARATLSCRASQSVSSIYLAWYQQKPGQAPRLLIFGASSRATGIPDRFSGSGSGTDFTLTISRLEPEDFAVYYCQQYGSSPYTFGQGTKLEIKR
With B5, the OD in [1] was found to be 0.1 OD; in test [2], 0.1 OD; in test [3], 0.2 OD; in [4] it was 0.2 OD.

B6: TRL1335 (antibody, V domains shown)
VH: QVQLVESGAEVKKPGESLKISCKGSGYNFTSYWIGWVRQMPGKGLEWMGVIYPDDSDTRYSPSFKGQVTISADKSISTAFLQWSSLKASDTAVYHCARPPDSWGQGTLVTVSS
VL: DIVMTQSPATLSVSPGERATLSCRASQSVSSNLAWYQQKPGLAPRLLIVGASNRATGIPARFSGSGSGTEFTLTISSLQSEDFAFYYCQQYNNWPFTFGPGTKVDVKR
In the case of B6, the binding result in test [5], in test [6] and in test [7] was “no binding” in each case.

B7: TRL1068 (antibody, V domains shown)
VH: QVQLVESGPGLVKPSETLSLTCRVSGDSNRPSYWSWIRQAPGKAMEWIGYVYDSGVTIYNPSLKGRVTISLDTSKTRFSLKLTSVIAADTAVYYCARERFDRTSYKSWWGQGTQVTVSS
VL: DIVLTQAPGTLSLSPGDRATLSCRASQRLGGTSLAWYQHRSGQAPRLILYGTSNRATDTPDRFSGSGSGTDFVLTISSLEPEDFAVYYCQQYGSPPYTFGQGTTLDIK
Consider B7, for which the equilibrium dissociation constant (Kd) (usually the equilibrium constant for the complex coming apart) was found to be 350 nM in [8]; 7 nM in [9]; 1 nM in [10]; 1 nM in test [11]; 2.7 nM in test [12]; 1.2 nM in test [13]. The Kd was found to be 0.0236 nM in [14], 0.009 nM in [15], 0.0076 nM in test [16] and 0.007 nM in [17]. Moreover, the 50% effective concentration (EC50) – broadly, the midpoint of the concentration-response curve – was found to be 5 nM in [18]; 0.011 nM in [19]; 0.011 nM in [20]; 0.015 nM in test [21]; 0.01 nM in test [22].

B8: TRL1215 (antibody, V domains shown)
VH: QVQLVESGTEVKNPGASVKVSCTASGYKFDEYGVSWVRQSPGQGLEWMGWISVYNGKTNYSQNFQGRLTLTTETSTDTAYMELTSLRPDDTAVYYCATDKNWFDPWGPGTLVTVSS
VL: DIVMTQSPSASGSPGQSITISCTGTNTDYNYVSWYQHHPGKAPKVIIYDVKKRPSGVPSRFSGSRSGNTATLTVSGLQTEDEADYYCVSYADNNHYVFGSGTKVTVL
As to B8, in test [4], the OD came to 1.4 OD.

B9: TRL1330 (antibody, V domains shown)
VH: QVQLVESGTEVKNPGASVKVSCTASGYKFDEYGVSWVRQSPGQGLEWMGWISVYNGKTNYSQNFQGRLTLTTETSTDTAYMELTSLRPDDTAVYYCATDKNWFDPWGPGTLVTVSS
VL: DIVLTQSPSASGSPGQSITISCTGTNTDYNYVSWYQHHPGKAPKVIIYDVKKRPSGVPSRFSGSRSGNTATLTVSGLQTEDEADYYCVSYADNNHYVFGSGTKVTVL
As to B9, the results for the 50% effective concentration (EC50) in test [21] and in test [22] were 0.023 nM and 0.017 nM, respectively.

B10: TRL1218 (antibody, V domains shown)
VH: QVQLLESGADMVQPGRSLRLSCAASGFNFRTYAMHWVRQAPGKGLEWVAVMSHDGYTKYYSDSVRGQFTISRDNSKNTLYLQMNNLRPDDTAIYYCARGLTGLSVGFDYWGQGTLVTVSS
VL: DIVLTQSASVSGSPGQSITISCTGTSSDVGGYNYVSWYQQHPGKAPKLMIYDVTTRPSGVSDRFSGSKSGNTASLTISGLQAEDEADYYCSSYSSGSTPALFGGGTQLTVL
Consider B10, for which the OD in test [1] was 0.04 OD; in test [2], 0.06 OD; in test [3] it was 0.09 OD.
